Measurements as given in the supplement of paper PMC10724198.
± gives the standard deviation of the averaged measurements.

What was measured:
Saccharomyces cerevisiae [1] = assay: protein stability index of tFT-peptide fusion (C-terminal peptide) (PSI (0-1 scale)); higher = more stable (slower turnover); conditions: genetic background: wild type; temperature: 30 C
Saccharomyces cerevisiae [2] = assay: as above
Experimental: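 MPS profiling in S. cerevisiae of the tFT-X12 degron library: putative degron peptides plus stable controls, 12 aa, fused to the C-terminus of a sfGFP-mCherry timer. Cells are FACS-sorted into 8 mCherry/sfGFP bins and deep-sequenced. PSI runs from 0 (unstable) to 1 (stable). Backgrounds are wild type, das1Δ and doa10Δ at 30 °C, and wild type, das1Δ, cdc34-1 and cdc53-1 at 37 °C; 2-3 technical replicates each.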

[3] = genetic background: cdc34-1, temperature: 37 C
[4] = genetic background: cdc53-1, temperature: 37 C
[5] = genetic background: das1 deletion, temperature: 30 C
[6] = genetic background: das1 deletion, temperature: 37 C
[7] = genetic background: doa10 deletion, temperature: 30 C
[8] = genetic background: wild type, temperature: 30 C
[9] = genetic background: wild type, temperature: 37 C
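Also: PSI is a weighted mean of sequencing reads over stability bins, variants kept only with over 10 reads, mCherry proximal and sfGFP distal, peptide attached via GGGS linker.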

Row | Sequence | protein stability index (Saccharomyces cerevisiae [1]) | protein stability index (Saccharomyces cerevisiae [2]; [3]) | protein stability index (Saccharomyces cerevisiae [2]; [4]) | protein stability index (Saccharomyces cerevisiae [2]; [5]) | protein stability index (Saccharomyces cerevisiae [2]; [6]) | protein stability index (Saccharomyces cerevisiae [2]; [7]) | protein stability index (Saccharomyces cerevisiae [2]; [8]) | protein stability index (Saccharomyces cerevisiae [2]; [9])
1 | RKNSQKILKLSG | 0.502 ± 0.15 | 0.6945 ± 0.0068 | 0.7724 ± 0.0073 | 0.64 ± 0.042 | 0.739 ± 0.024 | 0.256 ± 0.013 | 0.317 ± 0.019 | 0.576 ± 0.029
2 | HSRALLPYLSYH | 0.518 ± 0.029 | 0.684 ± 0.04 | 0.753 ± 0.016 | 0.651 ± 0.021 | 0.7732 ± 0.007 | 0.408 ± 0.013 | 0.388 ± 0.021 | 0.558 ± 0.012
3 | DYRCWCAILVSS | 0.2611 ± 0.00049 | 0.162 ± 0.0075 | 0.187 ± 0.0085 | 0.207 ± 0.029 | 0.3345 ± 0.0016 | 0.146 ± 0.013 | 0.172 ± 0.032 | 0.246 ± 0.013
4 | PCPAPRPPSPSA | 0.435 ± 0.03 | 0.664 ± 0.078 | 0.721 ± 0.05 | 0.653 ± 0.0096 | 0.715 ± 0.0076 | 0.668 ± 0.031 | 0.682 ± 0.023 | 0.694 ± 0.014
5 | DQPLWIGVLAYC | 0.455 ± 0.025 | 0.434 ± 0.04 | 0.4712 ± 0.00085 | 0.31 ± 0.04 | 0.502 ± 0.011 | 0.272 ± 0.0047 | 0.325 ± 0.013 | 0.487 ± 0.022
6 | LFGRVLSGILSV | 0.523 ± 0.06 | 0.687 ± 0.04 | 0.721 ± 0.015 | 0.567 ± 0.019 | 0.702 ± 0.028 | 0.474 ± 0.014 | 0.524 ± 0.037 | 0.68 ± 0.011
7 | CKRWGVVSYVFV | 0.493 ± 0.017 | 0.601 ± 0.069 | 0.6545 ± 0.0054 | 0.464 ± 0.025 | 0.655 ± 0.0067 | 0.418 ± 0.025 | 0.441 ± 0.024 | 0.61 ± 0.0099
8 | TLLSSIFLCLVL | 0.541 ± 0.1 | 0.575 ± 0.018 | 0.6448 ± 0.0023 | 0.477 ± 0.031 | 0.6128 ± 0.0011 | 0.466 ± 0.012 | 0.462 ± 0.024 | 0.574 ± 0.022
9 | DVVVIFGILCYC | 0.267 ± 0.013 | 0.0711 ± 0.0034 | 0.16 ± 0.0049 | 0.156 ± 0.045 | 0.3173 ± 0.0014 | 0.125 ± 0.014 | 0.15 ± 0.032 | 0.263 ± 0.0032
10 | RNNLHKKIRRGY | 0.413 ± 0.042 | 0.681 ± 0.046 | 0.752 ± 0.0082 | 0.661 ± 0.043 | 0.745 ± 0.033 | 0.184 ± 0.028 | 0.251 ± 0.037 | 0.458 ± 0.013
11 | FVMLSFLVSSLP | 0.4255 ± 0.0037 | 0.404 ± 0.006 | 0.489 ± 0.039 | 0.346 ± 0.028 | 0.513 ± 0.006 | 0.3038 ± 0.0018 | 0.34 ± 0.017 | 0.495 ± 0.0055
12 | LEGRFLACRGIC | 0.264 ± 0.04 | 0.619 ± 0.028 | 0.719 ± 0.048 | 0.598 ± 0.018 | 0.728 ± 0.02 | 0.144 ± 0.017 | 0.157 ± 0.011 | 0.325 ± 0.02
13 | GLVVWWLSGWLW | 0.373 ± 0.0071 | 0.249 ± 0.034 | 0.435 ± 0.05 | 0.269 ± 0.023 | 0.428 ± 0.0078 | 0.221 ± 0.026 | 0.276 ± 0.025 | 0.425 ± 0.048
14 | FSFLLYASLVTH | 0.314 ± 0.015 | 0.298 ± 0.016 | 0.343 ± 0.032 | 0.307 ± 0.021 | 0.333 ± 0.021 | 0.322 ± 0.0038 | 0.297 ± 0.013 | 0.3145 ± 0.00081
15 | LRNVPCLVFFWV | 0.462 ± 0.048 | 0.5656 ± 0.0038 | 0.61 ± 0.025 | 0.439 ± 0.024 | 0.632 ± 0.011 | 0.334 ± 0.017 | 0.384 ± 0.03 | 0.631 ± 0.049
16 | RLVGVRWEVCNL | 0.744 ± 0.015 | 0.91 ± 0.041 | 0.902 ± 0.024 | 0.78 ± 0.041 | 0.86371 ± 0.00039 | 0.771 ± 0.022 | 0.772 ± 0.014 | 0.863 ± 0.019
17 | PPPPPPPFLFFL | 0.496 ± 0.061 | 0.706 ± 0.018 | 0.795 ± 0.019 | 0.643 ± 0.013 | 0.747 ± 0.013 | 0.458 ± 0.015 | 0.472 ± 0.022 | 0.61 ± 0.013
18 | LLSGHFRLLLAF | 0.136 ± 0.029 | 0.0523 ± 0.014 | 0.149 ± 0.007 | 0.178 ± 0.02 | 0.23 ± 0.013 | 0.0793 ± 0.0067 | 0.0945 ± 0.014 | 0.108 ± 0.02
19 | GVMSICRWMISV | 0.374 ± 0.014 | 0.415 ± 0.0094 | 0.427 ± 0.012 | 0.325 ± 0.042 | 0.4914 ± 0.0034 | 0.263 ± 0.013 | 0.275 ± 0.035 | 0.439 ± 0.017
20 | AFCGRRGHQFYN | 0.263 ± 0.061 | 0.61 ± 0.0073 | 0.743 ± 0.016 | 0.648 ± 0.018 | 0.746 ± 0.037 | 0.144 ± 0.0093 | 0.164 ± 0.014 | 0.42 ± 0.027
21 | LACGIDGYYWRH | 0.792 ± 0.027 | 0.703 ± 0.048 | 0.7448 ± 0.0019 | 0.667 ± 0.015 | 0.73851 ± 0.00042 | 0.6631 ± 0.0021 | 0.682 ± 0.028 | 0.709 ± 0.017
22 | IYEAFLVFCLCG | 0.365 ± 0.021 | 0.426 ± 0.016 | 0.454 ± 0.011 | 0.326 ± 0.028 | 0.543 ± 0.014 | 0.284 ± 0.016 | 0.287 ± 0.015 | 0.4385 ± 0.0019
23 | FLFPFLSVLFLL | 0.245 ± 0.034 | 0.477 ± 0.014 | 0.506 ± 0.0071 | 0.479 ± 0.03 | 0.5591 ± 0.0049 | 0.176 ± 0.0088 | 0.176 ± 0.0083 | 0.232 ± 0.014
24 | RFVLVFLVSLII | 0.435 ± 0.035 | 0.376 ± 0.039 | 0.501 ± 0.0079 | 0.399 ± 0.029 | 0.541 ± 0.042 | 0.364 ± 0.016 | 0.397 ± 0.016 | 0.48 ± 0.019
25 | TSFLHLFVAAII | 0.513 ± 0.024 | 0.588 ± 0.027 | 0.632 ± 0.045 | 0.499 ± 0.02 | 0.5932 ± 0.0013 | 0.415 ± 0.009 | 0.434 ± 0.012 | 0.5505 ± 0.004
26 | LCFRLVSYLCIN | 0.39 ± 0.0077 | 0.497 ± 0.054 | 0.694 ± 0.013 | 0.591 ± 0.048 | 0.6781 ± 0.0015 | 0.223 ± 0.0073 | 0.221 ± 0.011 | 0.37 ± 0.013
27 | LFTSGNSLVLVH | 0.365 ± 0.0042 | 0.21126 ± 0.00018 | 0.257 ± 0.02 | 0.236 ± 0.037 | 0.3909 ± 0.00093 | 0.202 ± 0.0086 | 0.25 ± 0.034 | 0.362 ± 0.0076
28 | VGSSSGRLLYLC | 0.481 ± 0.0082 | 0.595 ± 0.007 | 0.73 ± 0.0093 | 0.633 ± 0.0066 | 0.7466 ± 0.0065 | 0.2656 ± 0.002 | 0.302 ± 0.022 | 0.43 ± 0.0049
29 | TSLPPSPPPSPT | 0.476 ± 0.025 | 0.682 ± 0.016 | 0.713 ± 0.17 | 0.392 ± 0.044 | 0.563 ± 0.0085 | 0.373 ± 0.014 | 0.392 ± 0.012 | 0.562 ± 0.033
30 | CSPAFRPIVFVL | 0.225 ± 0.013 | 0.2771 ± 0.00097 | 0.2732 ± 0.00067 | 0.301 ± 0.026 | 0.407 ± 0.013 | 0.1802 ± 0.00032 | 0.163 ± 0.016 | 0.176 ± 0.0079
